{"source": "patent US7838495B2", "about": "“Compositions and methods of use of EPB1, and ErbB3 binding protein” (University of Maryland, Baltimore, priority 2007, dated 2010)", "key": {"[1]": {"tested_on": "androgen-responsive genes", "experiment": "Microarray gene expression profiling of LNCaP cells stably transfected with EBP1", "assay_type": "cell-based, human", "conditions": "EPB1-overexpressing LNCaP cells vs controls", "description": "Microarray Analysis: First and second strand cDNA were synthesized from 5-15 μg of total RNA at Genome Explorations (Nashville, Tenn.) using the SuperScript Double-Stranded cDNA Synthesis Kit (Gibco Life Technologies, Gaithersburg, Md.) and an oligo-dT24-T7 (5′-GGCCAGTGAATTGTAATACGACTCACTATAGGGAGGCGG-3′) (SEQ ID NO: 3) primer according to the manufacturer's instructions. cRNA was synthesized labeled with biotinylated UTP and CTP by in vitro transcription using the T7 promoter-coupled, double-stranded cDNA as template and the T7 RNA Transcript Labeling Kit (ENZO Diagnostics Inc., Farmingdale, N.Y.). The fragmented cRNA was hybridized for U133A oligonucleotide arrays (Affymetrix, Santa Clara, Calif.) containing ˜33,000 full-length annotated genes, together with additional probe sets designed to represent EST sequences. The arrays were then stained with phycoerythrein-conjugated streptavidin (Molecular Probes, Eugene, Oreg.), and the fluorescence intensities were determined using a laser confocal scanner (Hewlett-Packard, Palo Alto, Calif.). The scanned images were analyzed using Microarray software (Affymetrix). Sample loading and variations in staining were standardized by scaling the average of the fluorescent intensities of all genes on an array to constant target intensity for all arrays used. The signal intensity for each gene was calculated as the average intensity difference, represented by [E(PM−MM)/(number of probe pairs)], where PM and MM denote perfect-match and mismatch probes. Data analysis was conducted using Microarray Suite 5.0 (Affymetrix) following user guidelines. Only genes with a minimum expression level of 500 were included in this analysis. […] AR-regulated genes include the Androgen Receptor (AR), PSA (kallikrein 3), Kallikrein 2, POV-1, TMPRSS2, and prostate-derived factor.\nEctopic expression of EPB1 downregulates androgen-regulated genes: Gene expression profiling of LNCaP cells stably transfected with EBP1 was used to determine the range of androgen-dependent genes affected by EPB1 overexpression. These cells overexpress EPB1 protein between two- and three-fold (Zhang et al., 2002, Repression of Androgen Receptor Mediated Transcription by the ErbB-3 Binding Protein EPB1, Oncogene, 21: 5609-5618). Changes in gene expression were measured using microarray analysis of 33,000 transcripts on the Affymetrix U133A chip. To compile a list of differentially regulated genes, only those genes that were activated or repressed at least 3-fold (p<0.05, 500 minimum expression units) were included. […] Forty-one genes were induced and 126 were repressed. Seventy-two of these genes have HUGO approved names. […] These include the Androgen Receptor (3.7 fold decrease), PSA (3.7 fold decrease) as previously reported (Zhang et al., 2002, Repression of Androgen Receptor Mediated Transcription by the ErbB-3 Binding Protein EPB1, Oncogene, 21: 5609-5618), Kallikrein 2 (3.2 fold decrease), POV-1 (5.0 fold decrease), TMPRSS2 (3.2 fold decrease), and prostate-derived factor (3.2 fold decrease). The Kallikrein 2 gene is regulated by AR, predominantly expressed in prostate tissue, secreted by LNCaP cells, and 78% homologous to PSA. […] The TMPRSS2 gene is androgen-regulated and also highly expressed in prostate and prostate cancer (Afar et al., 2001, Catalytic Cleavage of the Androgen-Regulated TMPRSS2 Protease Results in its Secretion by Prostate and Prostate Cancer Epithelia, Cancer Res., 61:1686-1692)."}, "MCF-7 cells": {"tested_on": "MCF-7 cells", "experiment": "HRG-induced MAPK and AKT phosphorylation in MCF-7 transfectants", "assay_type": "cell-based, human", "conditions": "EBP1 overexpressing MCF-7 cells", "description": "FIG. 11A-C. Ebp1 affects HRG-induced downstream signaling pathways. Serum starved MCF-7 vector control (CMV) or EBP1 transfected cells (Ebp1) cells were stimulated with HRG (20 ng/ml) for the indicated times. Cells lysates were blotted with antibodies to (A) phosphor MAPK and total MAPK or (B) phospho-Akt or total AKT. Data are representative of three experiments. […] Eight hours after transfection, cells were refed with media with 2% serum and the indicated concentrations of HRG. Growth was assessed by MTT assay 3 days later. Data are representative of two experiments.\n2.5. Western blot analysis. Total cell extracts were prepared by direct lysis of cells with lysis buffer [50 mM Tris-HCl (pH 7.4), 1 mM EDTA, 250 mM NaCl, 1% Triton X-100, 0.5 mM DTT, and 1× Complete™ protease inhibitor]. Protein concentrations were measured using a detergent compatible kit (Bio-Rad). Proteins (30 lg per well) were resolved by SDS-PAGE, transferred to PVDF membranes, and immunoblotted as described. […] Images were quantified using IMAGE-J software (NIH). […] Relative cell numbers were determined 4 days later using a Promega Proliferation Reagent as per manufacturer's instructions with absorbance being read at 490 nm using a Dynex plate reader. […] Data were analyzed using a two-tailed Students t-test and a p <0.05 was deemed statistically significant. […]"}}, "data": [{"molecule": "EBP1: ErbB3 binding protein (SEQ ID NO: 2), AR corepressor, here ectopically expressed in cancer cells by stable transfection of an expression plasmid (protein, listed as Homo sapiens, FLAG tag) MSGEDEQQEQTIAEDLVVTKYKMGGDIANRVLRSLVEASSSGVSVLSLCEKGDAMIMEETGKIFKKEKEMKKGIAFPTSISVNNCVCHFSPLKSDQDYILKEGDLVKIDLGVHVDGFIANVAHTFVVDVAQGTQVTGRKADVIKAAHLCAEAALRLVKPGNQNTQVTEAWNKVAHSFNCTPIEGMLSHQLKQHVIDGEKTIIQNPTDQQKKDHEKAEFEVHEVYAVDVLVSSGEGKAKDAGQRTTIYKRDPSKQYGLKMKTSRAFFSEVERRFDAMPFTLRAFEDEKKARMGVVECAKHELLQPFNVLYEKEGEFVAQFKFTVLLMPNGPMRITSGPFEPDLYKSEMEVQDAELKALLQSSASRKTQKKKKKKASKTAENATSGETLEENEAGD", "values": [{"measurement": "Androgen Receptor expression, fold decrease", "setting": "[1]", "result": 3.7, "unit": "fold"}, {"measurement": "Kallikrein 2 expression, fold decrease", "setting": "[1]", "result": 3.2, "unit": "fold"}, {"measurement": "POV-1 expression, fold decrease", "setting": "[1]", "result": 5.0, "unit": "fold"}, {"measurement": "PSA expression, fold decrease", "setting": "[1]", "result": 3.7, "unit": "fold"}, {"measurement": "TMPRSS2 expression, fold decrease", "setting": "[1]", "result": 3.2, "unit": "fold"}, {"measurement": "prostate-derived factor expression, fold decrease", "setting": "[1]", "result": 3.2, "unit": "fold"}, {"measurement": "basal MAPK phosphorylation", "setting": "MCF-7 cells", "result": "constitutively phosphorylated"}]}]}
